From PMC4309443 come the findings set out here.

Assay [1] addresses truncated Importin α1 (residues 71–497) (UniProt P52292). Put plainly: ITC; MicroCal iTC200, 25 °C; 1.5 mM TAF8 peptide injected into 39 μM Importin α1; 25 mM Tris-HCl pH 8.0, 150 mM NaCl, 1 mM β-mercaptoethanol; one-site model; duplicates. For orientation: In ITC the heat of successive injections is recorded.
Assay [2] deals with recombinant human TAF8, full length (human) (UniProt Q7Z7C8). Description: AUC; sedimentation velocity, absorbance at 280 nm, 42,000 r.p.m., 10 °C; c(s) analysis with Sedfit.
Assay [3] has as its target recombinant human TAF2, full length (human). Description: native MS; TAF2–8–10 in 500 mM ammonium acetate pH 7.5, Q-ToF II, collision-induced dissociation.
The target is the same in assay [4]. Description: AUC; sedimentation velocity, absorbance at 280 nm, 42,000 r.p.m., 10 °C; c(s) analysis with Sedfit.
For assay [5] the target is unchanged. Description: SPR; BIACORE 3000, 25 °C; TAF2 amine-coupled to CM5 (2,500 RU); MBP–TAF8 analytes at 500 nM; 25 mM HEPES-NaOH pH 7.0, 300 mM NaCl, 0.01% NP-40.

Where only a bound is given, the exact number is not on record here.

What is called Kd is the concentration at which binding is half-saturated. The low end stands for tighter binding, the high end for weaker binding. Usually stoichiometry N stands for a count of units in the complex or per binding partner.

In assay [1], “TAF8 NLS peptide used for ITC (printed as residues 288–310)” showed a Kd of 10.4 µM, a dH of -18.5 kcal/mol and a stoichiometry N of 1. With “recombinant human TAF10, full length (natural protein)”, the stoichiometry N in assay [2] was 1.

On to “TAF8–10 complex (full-length TAF8 and TAF10) (from UniProt Q7Z7C8-1 1-310)”, for which the stoichiometry N in assay [3] and in assay [4] was 1 throughout.

B1: MBP–TAF8 (residues 105–310) (domain or fragment)
chain: DTLPAYAKRSQRMVITAPPVTNQPVTPKALTAGQNRPHPPHIPSHFPEFPDPHTYIKTPTYREPVSDYQVLREKAASQRRDVERALTRFMAKTGETQSLFKDDVSTFPLIAARPFTIPYLTALLPSELEMQQMEETDSSEQDEQTDTENLALHISMEDSGAEKENTSVLQQNPSLSGSRNGEENIIDNPYLRPVKKPKIRRKKSLS
With B1, in assay [5], the maximal association level came out at 85 RU.

B2: MBP–TAF8 (residues 200–310) (domain or fragment)
chain: TQSLFKDDVSTFPLIAARPFTIPYLTALLPSELEMQQMEETDSSEQDEQTDTENLALHISMEDSGAEKENTSVLQQNPSLSGSRNGEENIIDNPYLRPVKKPKIRRKKSLS
With B2, in assay [5], the maximal association level was less than 10 RU.

B3: MBP–TAF8 (residues 141–310) (domain or fragment)
chain: PHPPHIPSHFPEFPDPHTYIKTPTYREPVSDYQVLREKAASQRRDVERALTRFMAKTGETQSLFKDDVSTFPLIAARPFTIPYLTALLPSELEMQQMEETDSSEQDEQTDTENLALHISMEDSGAEKENTSVLQQNPSLSGSRNGEENIIDNPYLRPVKKPKIRRKKSLS
For the molecule B3, in assay [5], the maximal association level was 40 RU.

B4: MBP–TAF8 (residues 105–260) (domain or fragment)
chain: DTLPAYAKRSQRMVITAPPVTNQPVTPKALTAGQNRPHPPHIPSHFPEFPDPHTYIKTPTYREPVSDYQVLREKAASQRRDVERALTRFMAKTGETQSLFKDDVSTFPLIAARPFTIPYLTALLPSELEMQQMEETDSSEQDEQTDTENLALHISM
Turning to B4, the maximal association level in assay [5] was less than 10 RU.
